How the values were obtained:
[1] = molecular target: Recreated full-length transaldolase of Bacillus methanolicus MGA3 (Ta^MGA3rec), C-terminal hexahistidine-tagged (Bacillus methanolicus MGA3); experiment: SEC; gel filtration of 1 mg purified Ta dissolved in 2 ml of 20 mM Tris-HCl, pH 7.8, with Ta activity assays of the eluted fractions; eluted in a single fraction corresponding to 54 kDa
[2] = molecular target: the molecule itself; experiment: as above
[3] = substrate: O=C[C@H](O)[C@H](O)COP(=O)(O)O; experiment: purified protein; format: biochemical, Bacillus methanolicus; details: co-substrate F6P, 50 mM Tris-HCl pH 7.8, 50 °C, 0.25 mM NADH

stoichiometry N [1]	Molecule	stoichiometry N [2]	Km [3]	Vmax [3]	kcat [3]	kcat/Km [3]
2	Recreated full-length transaldolase of Bacillus methanolicus MGA3 (Ta^MGA3rec), C-terminal hexahistidine-tagged (enzyme)					
	Transaldolase of Bacillus methanolicus PB1 (Ta^PB1), C-terminal hexahistidine-tagged (enzyme, UniProt I3E1B6 1-229, looked up, Transaldolase (Ta) of Bacillus methanolicus PB1, UniProt I3E1B6; also called PB1 Ta protein; PB1 Ta gene product; source: E. coli BL21 (DE3), pET28b-ta^PB1, purified (Ni-NTA chromatography)) MIQNSIQRNKGGVIIKFFIDTANIDEIREAHSLGILSGVTTNPSLVAKEKNVKFHDRLREIAGLVPGSVSAEVIALDTEGMIKEGRELASIAPNITVKVPMTPESLKAVHALSKEGIKTNVTLIFSANQALLAARAGATYVSPFLGRLDDIGHNGLELISTIADIFAIHQIKTEIIAASIRHPQHVTEAALKGAHIATLPYKVILQLFKHPLTDKGIEAFLADWKKRGQ	2	2500 µM	8.9 U/mg	4 s⁻¹	1.6 s^− 1 mM^− 1
